The values below come from US20140259226.

Where a chain is given by its changes, count along the chain named.

The target in one data set is T1, 6X His-PYR1 H60P.
T1 chain: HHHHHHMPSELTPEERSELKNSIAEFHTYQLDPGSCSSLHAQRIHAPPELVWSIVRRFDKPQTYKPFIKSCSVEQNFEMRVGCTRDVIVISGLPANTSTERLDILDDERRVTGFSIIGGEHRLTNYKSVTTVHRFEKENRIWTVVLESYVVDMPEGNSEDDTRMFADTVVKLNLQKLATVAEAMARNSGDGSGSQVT

The target of a further data set is T2, 6X His-PYR1 V83F.
T2 chain: T1 chain with P66H, V89F

Data set [1] deals with T3, PYL2^CA4C (H65P, A93W, M164I, F165V), 6xHis fusion.
T3 chain: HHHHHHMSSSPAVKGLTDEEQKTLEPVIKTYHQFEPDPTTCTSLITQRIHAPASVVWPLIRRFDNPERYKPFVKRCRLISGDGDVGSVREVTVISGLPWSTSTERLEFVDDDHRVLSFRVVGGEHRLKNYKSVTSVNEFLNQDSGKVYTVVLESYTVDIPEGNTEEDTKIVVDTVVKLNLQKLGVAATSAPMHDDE

Data set [2] has as its target T4, PYR1^CA4 (H60P, V83F, F159V, M158I), 6xHis fusion.
T4 chain: T1 chain with V89F, M164I, F165V

Data set [3] concerns the target T5, PYR1^CA4B (V83F, M158I, F159V, K170W), 6xHis fusion.
T5 chain: T1 chain with P66H, V89F, M164I, F165V, K176W

Another data set concerns the target T6, 6X His-PYR1 K170W.
T6 chain: T1 chain with P66H, K176W

A further data set concerns the target T7, 6X His-PYR1 T162F.
T7 chain: T1 chain with P66H, T168F

The next data set addresses T8, 6x-His-PYL10, wild type.
T8 chain: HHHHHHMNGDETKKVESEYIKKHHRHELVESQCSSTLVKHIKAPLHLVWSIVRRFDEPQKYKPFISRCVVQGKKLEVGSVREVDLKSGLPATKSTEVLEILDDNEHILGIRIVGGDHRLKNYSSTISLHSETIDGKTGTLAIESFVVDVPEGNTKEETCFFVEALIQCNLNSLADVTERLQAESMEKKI

Another data set deals with T9, 6x-His-PYL6, wild type.
T9 chain: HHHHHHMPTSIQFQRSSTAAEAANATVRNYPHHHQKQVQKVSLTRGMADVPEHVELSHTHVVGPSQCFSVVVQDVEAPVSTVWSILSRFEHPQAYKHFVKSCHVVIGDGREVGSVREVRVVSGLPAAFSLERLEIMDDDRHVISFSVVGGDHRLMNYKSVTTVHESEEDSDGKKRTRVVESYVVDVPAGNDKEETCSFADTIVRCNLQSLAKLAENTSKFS

For another data set, the target named is T10, 6X His-PYR1 A89W.
T10 chain: T1 chain with P66H, A95W

The target in data set [4] is T11, PYR1^CA3 (H60P, V83F, F159V), 6xHis fusion.
T11 chain: T1 chain with V89F, F165V

A further data set addresses T12, 6X His-PYR1 F159V.
T12 chain: T1 chain with P66H, F165V

The target in the next data set is T13, 6X His-PYR1 M158I.
T13 chain: T1 chain with P66H, M164I

In data set [5] the target is T14, PYR1^CA4C (H60P, A89W, M158I, F159V), 6xHis fusion.
T14 chain: T1 chain with A95W, M164I, F165V

In another data set the target is T15, 6X His-PYR1 I84Q.
T15 chain: T1 chain with P66H, I90Q

The target in data set [6] is T16, PYL9^CA4C (A91W, Y160I, F161V), 6xHis fusion.
T16 chain: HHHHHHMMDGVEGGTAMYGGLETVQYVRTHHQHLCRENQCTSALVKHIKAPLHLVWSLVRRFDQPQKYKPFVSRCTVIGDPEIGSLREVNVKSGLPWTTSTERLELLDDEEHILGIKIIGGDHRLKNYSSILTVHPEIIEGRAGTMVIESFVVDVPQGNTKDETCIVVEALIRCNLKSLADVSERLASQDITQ

B1: GST-HAB1 (protein)
chain: SPVEITQLKNVTDAADLLSDSENQSFCNGGTECTMEDVSELEEVGEQDLLKTLSDTRSGSSNVFDEDDVLSVVEDNSAVISEGLLVVDAGSELSLSNTAMEIDNGRVLATAIIVGESSIEQVPTAEVLIAGVNQDTNTSEVVIRLPDENSNHLVKGRSVYELDCIPLWGTVSIQGNRSEMEDAFAVSPHFLKLPIKMLMGDHEGMSPSLTHLTGHFFGVYDGHGGHKVADYCRDRLHFALAEEIERIKDELCKRNTGEGRQVQWDKVFTSCFLTVDGEIEGKIGRAVVGSSDKVLEAVASETVGSTAVVALVCSSHIVVSNCGDSRAVLFRGKEAMPLSVDHKPDREDEYARIENAGGKVIQWQGARVFGVLAMSRSIGDRYLKPYVIPEPEVTFMPRSREDECLILASDGLWDVMNNQEVCEIARRRILMWHKKNGAPPLAERGKGIDPACQAAADYLSMLALQKGSKDNISIIVIDLKAQRKFKTRT
On to B1, for which the “HAB1 phosphatase (PP2C) activity, % of control, pNPP hydrolysis, in the absence of ABA” value with 6X His-PYR1 H60P, with 6X His-PYR1 V83F, in the data set with 6X His-PYR1 K170W, in the data set with 6X His-PYR1 T162F, in the data set with 6X His-PYR1 A89W and with 6X His-PYR1 F159V was “each of the activating mutants increased basal receptor activity in comparison to wild-type PYR1” throughout. The “HAB1 phosphatase (PP2C) activity, % of control, pNPP hydrolysis, in the absence of ABA” value with 6X His-PYR1 M158I and with 6X His-PYR1 I84Q was “each of the activating mutants increased basal receptor activity in comparison to wild-type PYR1” throughout. The “PP2C activity, % of control, pNPP hydrolysis, in the absence of ABA” value in data set [1] is “the mutant proteins were highly activated in the absence of ABA in comparison to wild-type PYL2 or PYL9”; in data set [2] it was “both the triple and quadruple mutants dramatically increased basal PYR1 activity relative to wild-type PYR1”; in [3], “both the PYR1^CA4B and PYR1^CAc mutants dramatically increased basal PYR1 activity relative to wild-type PYR1”; in data set [4], “both the triple and quadruple mutants dramatically increased basal PYR1 activity relative to wild-type PYR1”; in [5] it was “both the PYR1^CA4B and PYR1^CAc mutants dramatically increased basal PYR1 activity relative to wild-type PYR1”; in data set [6] it was “the mutant proteins were highly activated in the absence of ABA in comparison to wild-type PYL2 or PYL9”. The “PP2C activity, % of control, pNPP hydrolysis, with 0 or 10 µM ABA” value with 6x-His-PYL10, wild type is “PYL6 and PYL10, which have high basal activities ..., are not full CA receptors”; with 6x-His-PYL6, wild type it was “PYL6 and PYL10, which have high basal activities ..., are not full CA receptors”.
